Data: patent publication US10745460B2, “Peptides and combination of peptides for use in immunotherapy against various tumors” (Immatics Biotechnologies GmbH, priority 2015, dated 2020)

The substances below were run against HLA-A*02:01 (Homo sapiens, UniProt P04439, D140Y/D185E/D98H/E176V/E277Q/G131W/G231S/I119V/I121R/I166T/I218V/L300P/L318F/N151K/N90K/P208A/P217A/Q86G/Q94H/R138H/R169H/T345S) (assay: MHC binding assay: UV-ligand exchange with β2m ELISA (peptide exchange yield)). Conditions: binding to HLA-A*02:01 evaluated by peptide exchange yield (UV-ligand exchange, β2m ELISA).
Source text: Candidate peptides for T cell based therapies according to the present invention were further tested for their MHC binding capacity (affinity). The individual peptide-MHC complexes were produced by UV-ligand exchange, where a UV-sensitive peptide is cleaved upon UV-irradiation, and exchanged with the peptide of interest as analyzed. Only peptide candidates that can effectively bind and stabilize the peptide-receptive MHC molecules prevent dissociation of the MHC complexes. To determine the yield of the exchange reaction, an ELISA was performed based on the detection of the light chain (β2m) of stabilized MHC complexes. The assay was performed as generally described in Rodenko et al. (Rodenko et al., 2006).
96 well MAXISorp plates (NUNC) were coated over night with 2 ug/ml streptavidin in PBS at room temperature, washed 4× and blocked for 1 h at 37° C. in 2% BSA containing blocking buffer. Refolded HLA-A*02:01/MLA-001 monomers served as standards, covering the range of 15-500 ng/ml. Peptide-MHC monomers of the UV-exchange reaction were diluted 100 fold in blocking buffer. Samples were incubated for 1 h at 37° C., washed four times, incubated with 2 ug/ml HRP conjugated anti-β2m for 1 h at 37° C., washed again and detected with TMB solution that is stopped with […]. Absorption was measured at 450 nm. Candidate peptides that show a high exchange yield (preferably higher than 50%, most preferred higher than 75%) are generally preferred for a generation and production of antibodies or fragments thereof, and/or T cell receptors or fragments thereof, as they show sufficient avidity to the MHC molecules and prevent dissociation of the MHC complexes.

Row | Substance | Peptide exchange
1 | 191 (AAIEIFEKV; listed as Homo sapiens) [compound 191] | +++ (≥50 = +++)
2 | 180 (RLYEEEIRI; listed as Homo sapiens) [compound 180] | +++ (≥50 = +++)
3 | 162 (GLLGNLLTSL; listed as Homo sapiens) [compound 162] | +++ (≥50 = +++)
4 | 164 (MLIIRVPSV; listed as Homo sapiens) [compound 164] | +++ (≥50 = +++)
5 | 213 (ILAVDGVLSV; listed as Homo sapiens) [compound 213] | +++ (≥50 = +++)
6 | 69 (LKVLKADVVL; listed as Homo sapiens) [compound 69] | ++ (≥20% = ++)
7 | 131 (SLYPHFTLL; listed as Homo sapiens) [compound 131] | +++ (≥50 = +++)
8 | 210 (GLAGDNIYL; listed as Homo sapiens) [compound 210] | +++ (≥50 = +++)
9 | 231 (LLDDIFIRL; listed as Homo sapiens) [compound 231] | +++ (≥50 = +++)
10 | 121 (ALYVQAPTV; listed as Homo sapiens) [compound 121] | ++ (≥20% = ++)
11 | 148 (YLILSSHQL; listed as Homo sapiens) [compound 148] | +++ (≥50 = +++)
12 | 157 (ILQDGQFLV; listed as Homo sapiens) [compound 157] | ++ (≥20% = ++)
13 | 274 (TLYNPERTITV; listed as Homo sapiens) [compound 274] | +++ (≥50 = +++)
14 | 158 (YLDPLWHQL; listed as Homo sapiens) [compound 158] | +++ (≥50 = +++)
15 | 134 (SLYKSFLQL; listed as Homo sapiens) [compound 134] | ++ (≥20% = ++)
16 | 206 (GLDAFRIFL; listed as Homo sapiens) [compound 206] | ++++ (≥75% = ++++)
17 | 151 (DISKRIQSL; listed as Homo sapiens) [compound 151] | ++ (≥20% = ++)

Row | Substance | Peptide exchange
18 | 96 (ALDTTRHEL; listed as Homo sapiens) [compound 96] | ++ (≥20% = ++)
19 | 226 (SLAGNLQEL; listed as Homo sapiens) [compound 226] | +++ (≥50 = +++)
20 | 222 (LLTGVFAQL; listed as Homo sapiens) [compound 222] | ++ (≥20% = ++)
21 | 20 (ALVEKGEFAL; listed as Homo sapiens) [compound 20] | ++ (≥20% = ++)
22 | 106 (VLLGSVVIFA; listed as Homo sapiens) [compound 106] | ++ (≥20% = ++)
23 | 7 (ALLQALMEL; listed as Homo sapiens) [compound 7] | +++ (≥50 = +++)
24 | 6 (FLNAIETAL; listed as Homo sapiens) [compound 6] | ++++ (≥75% = ++++)
25 | 154 (AIIKEIQTV; listed as Homo sapiens) [compound 154] | ++ (≥20% = ++)
26 | 230 (KLLNMIFSI; listed as Homo sapiens) [compound 230] | +++ (≥50 = +++)
27 | 9 (SLITGQDLLSV; listed as Homo sapiens) [compound 9] | +++ (≥50 = +++)
28 | 219 (GVVPTIQKV; listed as Homo sapiens) [compound 219] | ++ (≥20% = ++)
29 | 145 (ALEEKLENV; listed as Homo sapiens) [compound 145] | +++ (≥50 = +++)
30 | 242 (KLQEEIPVL; listed as Homo sapiens) [compound 242] | +++ (≥50 = +++)
31 | 137 (KLIYKDLVSV; listed as Homo sapiens) [compound 137] | ++ (≥20% = ++)
32 | 147 (GLLSALENV; listed as Homo sapiens) [compound 147] | +++ (≥50 = +++)
33 | 227 (SEMEELPSV; listed as Homo sapiens) [compound 227] | + (≥10% = +)
